Assay results reported in patent publication US20080194611A1, “Modulation of Cell Barrier Dysfunction” (priority 2005, published 2008).

Target: membrane protein on P. aeruginosa (whole cells, membrane fractions, solubilized membrane proteins of (Pseudomonas aeruginosa))

Sequence of recombinant human IFN-γ (rH IFN-γ) (P01579 24-166 limits assumed): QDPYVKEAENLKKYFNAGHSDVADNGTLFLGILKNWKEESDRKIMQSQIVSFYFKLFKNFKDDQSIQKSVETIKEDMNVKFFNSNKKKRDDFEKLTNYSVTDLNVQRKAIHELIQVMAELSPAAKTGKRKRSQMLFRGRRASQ

recombinant human IFN-γ (rH IFN-γ) (from UniProt P01579 24-166) (ligand)
percent of bacterial cells that bound IFN-γ: 73%
